The record followed here is patent US7807396B2, “Insulin degrading enzyme assays for treatment of alzheimer's disease” (University of Kentucky Research Foundation, priority 2000, dated 2010).

The data set has as its target T1, β-endorphin (Homo sapiens, UniProt P01189).
T1 construct: Human β-endorphin1-31; purchased National Institute on Drug Abuse drug supply system
T1 sequence (P01189 237-267): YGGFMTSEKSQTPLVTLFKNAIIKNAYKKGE
As to the kind of experiment: Insulysin activity determination, disappearance of β-endorphin by HPLC. The format is biochemical. The following applies: 30 μM β-endorphin, 37° C. On the procedure:
Materials. […] Solutions were prepared by dissolving the peptide in dimethylsulfoxide (DMSO) to give a stock concentration of 200 μM. The peptide stock was lyophilized and stored at −80° C. until use. The aggregation state of Aβ peptide stock solutions was checked by electron microscopy (Ray et al. (2000) Brain Res 853:344-351) and found to be predominantly, if not exclusively, monomeric. For the in vitro reactions with insulysin, a final concentration of 25 μM Aβ1-40 was obtained after bringing the lyophilized peptide into solution with double distilled water. […] Human β-endorphin1-31, obtained from the National Institute on Drug Abuse drug supply system, was dissolved in water to give a stock solution of 300 μM. Trifluoroacetic acid (Sigma Biochemicals, St. Louis, Mo.) was diluted into water to produce a 5% working solution.
Insulysin activity was assayed by measuring the disappearance of β-endorphin by isocratic reverse phase HPLC (Safavi et al. (1996) Biochemistry 1996 35:14318-14325). A 100 μl reaction mixture containing 40 mM potassium phosphate buffer, pH 7.2, 30 μM β-endorphin, and enzyme was incubated for 15 minutes at 37° C. […] The β-endorphin peak was detected by absorbance at 214 nm using a Waters 484 detector. The reaction was quantitated by measuring the decrease in the β-endorphin peak area.

B1: enzyme purified from a thymoma cell line, EL-4: insulysin enzyme purified from a thymoma cell line, EL-4, used for comparison of specific activity (protein, UniProt Q9JHR7 1-1019, looked up)
Insulin-degrading enzyme: MRNGLVWLLHPALPGTLRSILGARPPPAKRLCGFPKQTYSTMSNPAIQRIEDQIVKSPEDKREYRGLELANGIKVLLISDPTTDKSSAALDVHIGSLSDPPNIPGLSHFCEHMLFLGTKKYPKENEYSQFLSEHAGSSNAFTSGEHTNYYFDVSHEHLEGALDRFAQFFLCPLLDASCKDREVNAVDSEHEKNVMNDAWRLFQLEKATGNPKHPFSKFGTGNKYTLETRPNQEGIDVREELLKFHSTYYSSNLMAICVLGRESLDDLTNLVVKLFSEVENKNVPLPEFPEHPFQEEHLRQLYKIVPIKDIRNLYVTFPIPDLQQYYKSNPGYYLGHLIGHEGPGSLLSELKSKGWVNTLVGGQKEGARGFMFFIINVDLTEEGLLHVEDIILHMFQYIQKLRAEGPQEWVFQECKDLNAVAFRFKDKERPRGYTSKIAGKLHYYPLNGVLTAEYLLEEFRPDLIDMVLDKLRPENVRVAIVSKSFEGKTDRTEQWYGTQYKQEAIPEDVIQKWQNADLNGKFKLPTKNEFIPTNFEILSLEKDATPYPALIKDTAMSKLWFKQDDKFFLPKACLNFEFFSPFAYVDPLHCNMAYLYLELLKDSLNEYAYAAELAGLSYDLQNTIYGMYLSVKRYNDKQPILLKKITEKMATFEIDKKRFEIIKEAYMRSLNNFRAEQPHQHAMYYLRLLMTEVAWTKDELKEALDDVTLPRLKAFIPQLLSRLHIEALLHGNITKQAALGVMQMVEDTLIEHAHTKPLLPSQLVRYREVQLPDRGWFVYQQRNEVHNNCGIEIYYQTDMQSTSENMFLELFCQIISEPCFNTLRTKEQLGYIVFSGPRRANGIQGLRFIIQSEKPPHYLESRVEAFLITMEKAIEDMTEEAFQKHIQALAIRRLDKPKKLSAECAKYWGEIISQQYNYDRDNIEVAYLKTLTKDDIIRFYQEMLAVDAPRRHKVSVHVLAREMDSCPVVGEFPSQNDINLSEAPPLPQPEVIHNMTEFKRGLPLFPLVKPHINFMAAKL
For B1, the specific activity is reported as 3.3 μmols/min/mg.
